For four substances, response (% of HAdV-A12 positive control) results are on record in paper PMC6315623.

The target of this test is BS69 MYND domain (residues 427-602) fused to a B42 activation domain (UniProt Q15326). Put plainly: yeast two-hybrid (β-galactosidase activity). The following applies: n = 3; parent: est. 1; read off a plot.
BS69 MYND domain (residues 427-602) fused to a B42 activation domain, sequence (Q15326 427-602): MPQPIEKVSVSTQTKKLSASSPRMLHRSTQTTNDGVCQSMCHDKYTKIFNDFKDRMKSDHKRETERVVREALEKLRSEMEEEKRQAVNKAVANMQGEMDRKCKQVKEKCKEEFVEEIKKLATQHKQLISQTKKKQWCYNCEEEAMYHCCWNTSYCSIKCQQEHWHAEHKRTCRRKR

In the case of “HAdV-D9 E1A PXLXP motif fragment, wildtype, LexA DBD fusion I9V”, the response (% of HAdV-A12 positive control) was 1. “HAdV-D9 E1A PXLXP motif fragment, wildtype, LexA DBD fusion P10C”: the response (% of HAdV-A12 positive control) came out at 1.5.

In the case of “HAdV-D9 E1A PXLXP motif fragment, wildtype, LexA DBD fusion T3P”, the response (% of HAdV-A12 positive control) came out at 59.

For “HAdV-D9 E1A PXLXP motif fragment, wildtype, LexA DBD fusion T5V”, the response (% of HAdV-A12 positive control) came to 1.
